According to publication PMC7810988 (2019):

Target: T1, OsSPX4^1–321 (rice, UniProt Q10B79 1-320)
T1 chain: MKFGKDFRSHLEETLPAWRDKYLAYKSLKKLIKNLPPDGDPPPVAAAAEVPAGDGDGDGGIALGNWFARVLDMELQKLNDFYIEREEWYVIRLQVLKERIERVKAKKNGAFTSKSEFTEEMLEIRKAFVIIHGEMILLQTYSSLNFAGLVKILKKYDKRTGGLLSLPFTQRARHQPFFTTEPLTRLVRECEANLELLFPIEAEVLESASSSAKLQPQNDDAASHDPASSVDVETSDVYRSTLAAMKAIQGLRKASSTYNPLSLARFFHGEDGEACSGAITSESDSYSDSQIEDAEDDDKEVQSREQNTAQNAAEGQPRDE
Assay: ITC; 5PP-InsP5 (InsP7) 100 uM

B1: full-length OsPHR2 (OsPHR2^1-426, wild type) (natural protein)
chain: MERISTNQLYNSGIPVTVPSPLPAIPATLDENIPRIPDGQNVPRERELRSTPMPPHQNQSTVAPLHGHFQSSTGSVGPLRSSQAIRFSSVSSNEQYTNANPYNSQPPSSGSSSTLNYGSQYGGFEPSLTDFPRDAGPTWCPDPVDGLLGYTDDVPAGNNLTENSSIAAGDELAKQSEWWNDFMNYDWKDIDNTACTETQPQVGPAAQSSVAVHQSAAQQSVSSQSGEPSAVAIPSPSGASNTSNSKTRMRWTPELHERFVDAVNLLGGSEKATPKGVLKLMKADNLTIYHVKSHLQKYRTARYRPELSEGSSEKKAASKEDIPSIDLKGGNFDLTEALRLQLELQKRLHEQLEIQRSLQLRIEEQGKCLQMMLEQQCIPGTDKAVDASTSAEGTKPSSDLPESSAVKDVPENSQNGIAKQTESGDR
B1 gave a Kd of 3.05 µM.
